Numbering of substitutions follows the chain as printed.
B1: anti-LILRB4 rabbit monoclonal antibody #192 (antibody, V domains shown)
VH: EQSLEESGGGLVTPGGTLTLTCTVSGFSLSNNAMSWVRQAPGKGLEWIGVILLAGPTYYASWAKGRFTISKTSTTVDLKITSPTTEDTATYFCAIAIGSRPFALWGQGTLVTISS
VL: ELVLTQTPSSTSAAVGGTVTINCQSSQSVYSNWLSWFQQKPGQPPKPLIYLASTLASGVPSRFSGSGSGTQFTLTISDVQCDDAATYYCQGGYNGNIYTFGGGTEVVVK
notes: Rabbit mAb
B2: anti-LILRB4 rabbit monoclonal antibody #208 (antibody, V domains shown)
VH: B1 VH with L4V, A54S, P56T
VL: B1 VL with L4M
notes: Rabbit mAb
B3: anti-LILRB4 rabbit monoclonal antibody #161-1 (antibody, V domains shown)
VH: QSVKESGGRLVTPGTPLTLTCTVSGIDLSVYLMSWVRHSPGKGLEYIGFINSAGITAYATWAKGRFIISKTSTTVDLKVTSPTTEDTATYFCARNWIRLDLWGQGTLVTISS
VL: ELDLTQTPASVSAAVGGTVTISCQSSETIYKNYLSWFQQKPGQPPKLLIYESSKLASGVPSRFSGSGSGTQFTLTISDVQCDDAATYYCLGGYTDGRDTIFGGGTELEIK
notes: Rabbit mAb
B4: anti-LILRB4 rabbit monoclonal antibody #161-2 (antibody, V domains shown)
VH: B3 VH
VL: TQTPASVSAAVGGTVTISCQSSETIYKNYLSWFQQKPGQPPKLLIYESSKLASGVPSRFSGSGSGTQFTLTISDVQCDDAATYYCLGGYTDGRDTIFGGGTEVEIK
notes: Rabbit mAb
B5: anti-LILRB4 rabbit monoclonal antibody #120 (antibody, V domains shown)
VH: QSLEESGGRLVTPGTPLTLTCTVSGIDLNKYAMTWVRQAPGKGLEYIGFINIVGIAGYATWAKGRFTISKTSTTVDLKVTSPTTEDTATYFCARNWIRLDLWGQGTLVTVSS
VL: ELDLTQTPASVSAAVGGTVTISCQSSESLYKKNYLSWFQQKPGQPPKLLIFEASKLASGVPSRFSGSGSGTQFTLTISDVQCDDAASYYCLGDYTNGRDTTFGGGTEVVVK
notes: Rabbit mAb
B6: anti-LILRB4 mAb C84 (antibody, V domains shown)
VH: QIQLVQSGPELKKPGETVKISCKASGYTFTNYGMNWVKQAPGKGLKWMGWINTYTGEPTYADDFKGRFAFSLETSASTAYLQINNLKNEDMATYFCASIYYHTSLWYFDVWGAGTTVTVSS
VL: DVLMTQTPLSLPVSLGDQASISCRSSQNIVHSNGNTYLEWYLQKPGQSPKLLIYRVSNRFSGVPVRFSGSGSGTDFTLKISRVEAEDLGVYYCFQGSHVPLTFGAGTKLELK
notes: Mouse mAb; also called anti-hLILRB4
B7: anti-LILRB mAb C3 (antibody, V domains shown)
VH: EVQLVESGGGLVQPKGSLKLSCAASGFTFNNYAMNWGRQAPGKGLEWVARIRSKRNNYATHYDDSVKDRFTISRDDSQNMLYLQLNNLKTEDTAMYYCVRDGPYAMDYWGQGTSVTVSS
VL: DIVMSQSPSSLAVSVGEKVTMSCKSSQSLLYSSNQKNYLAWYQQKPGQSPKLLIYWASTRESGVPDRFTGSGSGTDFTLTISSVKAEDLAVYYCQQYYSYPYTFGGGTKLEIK
notes: mAb against LILRB3
B8: anti-LILRB mAb C287 (antibody, V domains shown)
VH: QIQLVQSGPELKKPGETVKISCKASGYTFTNYGINWVKQAPGKGLKWMGWINTNTGEPTYAEDFKGRFAFSLETSASTAYLQINNLKNEDTATYFCTRGSAKGGFFYWGQGTLVTVSA
VL: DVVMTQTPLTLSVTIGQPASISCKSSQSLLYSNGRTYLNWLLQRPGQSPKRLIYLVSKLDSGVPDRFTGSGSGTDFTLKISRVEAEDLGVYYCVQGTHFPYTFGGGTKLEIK
notes: mAb against LILRB3
B9: anti-LILRB4 mAb C53 (antibody, V domains shown)
VH: EVNLEESGGGLVQPGGSMKLSCIASGFTFSNYWMNWVRQSPEKGLEWVAEIRLKYNNYATHYAESVKGRFTISRDDSKSTVYLQMNNLRAEDTGIYYCTGTRYGSSLDYWGQGTSVTVSS
VL: DIVMSQSPSSLAVSVGEKVTMSCKSSQNLFYSTNQKNYLAWYQQKPGQSPKLLIYWASTRESGVPDRFTGSGSGTAFTLTISSVKAEDLAVYYCQQYYNYPLTFGAGTKLELK
notes: Mouse mAb
B10: anti-LILRB4 mAb C92 (antibody, V domains shown)
VH: B6 VH
VL: DVVMTQTPLSLPVSLGDQASISCRSSQSLVHSNGNTYLHWYLQKPGQSPKLLIYKVSNRFSGVPDRFSGSGSGTDFTLKISRVEAEDLGVYFCSQSTHVPYTFGGGTKLEIK
notes: Mouse mAb

Target: T1, human LILRB4 (human, UniProt Q8NHJ6 22-259, limits assumed)
T1 construct: also called leukocyte immunoglobulin-like receptor subfamily B member 4
Assay: ELISA

EC50	Binder
0.14 nM	B1
0.132 nM	B2
0.0691 nM	B3
0.084 nM	B4
0.0795 nM	B5
0.568 nM	B6

Target: T1, human LILRB4
Assay: reactivity table, assay not named on the sheet

binding result	Binder
binds	B7

Target: T2, LILRB3 (human, UniProt O75022 24-443, limits assumed)
T2 construct: also called leukocyte immunoglobulin-like receptor subfamily B member 3
T2 sequence (O75022 24-443 limits assumed): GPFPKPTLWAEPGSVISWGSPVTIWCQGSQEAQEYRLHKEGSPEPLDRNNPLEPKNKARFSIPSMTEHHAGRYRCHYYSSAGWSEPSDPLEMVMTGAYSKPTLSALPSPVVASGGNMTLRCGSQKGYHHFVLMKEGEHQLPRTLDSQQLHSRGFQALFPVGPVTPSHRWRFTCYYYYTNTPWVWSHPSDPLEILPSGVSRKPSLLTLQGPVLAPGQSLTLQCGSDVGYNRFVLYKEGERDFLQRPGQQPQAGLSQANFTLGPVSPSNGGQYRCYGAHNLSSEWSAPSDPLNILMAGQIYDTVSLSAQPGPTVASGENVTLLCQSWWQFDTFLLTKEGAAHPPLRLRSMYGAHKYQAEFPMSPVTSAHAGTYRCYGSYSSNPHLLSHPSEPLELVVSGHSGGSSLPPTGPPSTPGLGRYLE
Assay: flow cytometry on LILRB3-overexpressing 293T cells, mAb at 2 ug/ml

% of cells in the positive gate	Binder
54.2%	B7
55%	B8

Target: T1, human LILRB4
Assay: flow cytometry on LILRB4-overexpressing 293T cells, mAb at 2 ug/ml

% of cells in the positive gate	Binder
73.5%	B9
62.5%	B6
44.7%	B10

Reference: US20200079851A1 (University of Texas, published 2020)
